Molecular target: T1, EPCR (Homo sapiens, UniProt Q9UNN8)
T1 construct: endogenous in cells; host or cells: THP1-null (wildtype) cells, PMA-differentiated
T1 sequence (Q9UNN8 18-238): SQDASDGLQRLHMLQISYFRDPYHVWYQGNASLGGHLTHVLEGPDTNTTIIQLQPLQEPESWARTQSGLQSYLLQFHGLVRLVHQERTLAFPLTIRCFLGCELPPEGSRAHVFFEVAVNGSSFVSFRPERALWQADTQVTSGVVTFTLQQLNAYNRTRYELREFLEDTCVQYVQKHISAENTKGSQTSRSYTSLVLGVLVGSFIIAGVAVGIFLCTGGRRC
Assay: Caspase 1 activity assay in THP1 cells after blocking EPCR with antibody RCR-252
Assay type: cell-based
Conditions: RCR-252 50 μg/mL before APC 4 μg/mL, TR47 50 μM or P3R 50 μM
Procedure: THP1 or (A) NLRP3 deficient cells (THP1-defNLRP3) cells were plated at a final concentration of 1×10^6/mL in 96 well plates and incubated with PMA (0.5 μM) for 3 hours 37° C. in supplemented RPMI. Media was subsequently changed every 24 hours for 3 days. In brief, selected wells were treated with APC (4 μg/mL), TR47 (50 μM) or P3R (50 μM) for 1 hour, washed with DPBS, and incubated with LPS (1 μg/mL) for 3 hours at 37° C. in serum-free RPMI. After a DPBS wash, cells were incubated with ATP (5 mM) in the presence or absence of 10 μM YVAD (caspase 1 inhibitor) or 2.5 μM ZVAD (pan-caspase inhibitor) for 45 minutes at 37° C. […] Again, cells were washed with DPBS and incubated with ATP (5 mM) in the presence or absence of 10 μM YVAD (caspase 1 inhibitor) or 2.5 μM ZVAD (pan-caspase inhibitor) for 45 minutes prior to performing the caspase 1 activity following manufacturer's directions measuring luminescence. […] After a DPBS wash, cells were incubated with ATP (5 mM) in the presence or absence of 10 μM YVAD (caspase 1 inhibitor) or 2.5 μM ZVAD (pan-caspase inhibitor) for 45 minutes at 37° C., prior to performing the caspase 1 activity assay following manufacturer's directions measuring luminescence (relative luminescent units, RLU). […]

Sequence | effect of blocking EPCR on inhibition of caspase 1 activity
GAPPNSFEEFPFSALEGWTGATIT [P3R, PAR3-derived 24-mer peptide] | though trending, did not reach significance
NPNDKYEPFWEDEEKNESGL [TR47, PAR1-derived 20 amino acid peptide] | significant loss in their inhibition of caspase 1 activity

From patent US20220313780A1, “METHODS AND COMPOSITIONS FOR TREATING INFLAMMATORY CONDITIONS” (THE SCRIPPS RESEARCH INSTITUTE, priority 2019, published 2022)
